Experimental data taken from the supplement of paper PMC9112550, “Optimization of the antimicrobial peptide Bac7 by deep mutational scanning” (BMC Biology, 2022).

What follows are sequences tested on Escherichia coli TOP10 (assay: shrunken log2 fold change of peptide-encoding DNA abundance (4.5 h post-induction vs induction); higher = less antimicrobial activity (less host growth inhibition)). Conditions: time post-induction: 4.5 h; library: site-saturation at positions 5, 18, 19, 20.
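Note: peptides expressed intracellularly from a pBAD plasmid library in pooled LB shake-flask culture, induced with 0.3% L-arabinose, DNA abundance read by NGS, three biological replicates, DESeq2 with apeglm shrinkage.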

Row | Sequence | shrunken log2 fold change
1 | RRIRERPPRLPRPRPRPCGTPRP | -0.00758
2 | RRIRERPPRLPRPRPRPCIIPRP | -0.449
3 | RRIRERPPRLPRPRPRPCILPRP | -0.425
4 | RRIRERPPRLPRPRPRPCKIPRP | -0.00331
5 | RRIRERPPRLPRPRPRPCKKPRP | 0.0187
6 | RRIRERPPRLPRPRPRPCLEPRP | -0.116
7 | RRIRERPPRLPRPRPRPCLMPRP | -0.0535
8 | RRIRERPPRLPRPRPRPCLRPRP | 0.0836
9 | RRIRERPPRLPRPRPRPCLSPRP | 0.0657
10 | RRIRERPPRLPRPRPRPCMIPRP | -0.2
11 | RRIRERPPRLPRPRPRPCMYPRP | -0.201
12 | RRIRERPPRLPRPRPRPCPMPRP | -0.511
13 | RRIRERPPRLPRPRPRPCPPPRP | -0.0496
14 | RRIRERPPRLPRPRPRPCQDPRP | -0.534
15 | RRIRERPPRLPRPRPRPCQFPRP | -0.131
16 | RRIRERPPRLPRPRPRPCQTPRP | -0.397
17 | RRIRERPPRLPRPRPRPCRFPRP | -0.455
18 | RRIRERPPRLPRPRPRPCSNPRP | 0.0168
19 | RRIRERPPRLPRPRPRPCVCPRP | -0.132
20 | RRIRERPPRLPRPRPRPCVFPRP | 0.0387
21 | RRIRERPPRLPRPRPRPCVIPRP | -0.0272
22 | RRIRERPPRLPRPRPRPCVNPRP | -0.182
23 | RRIRERPPRLPRPRPRPCVQPRP | -0.0665
24 | RRIRERPPRLPRPRPRPCWQPRP | -0.0429
25 | RRIRERPPRLPRPRPRPCYIPRP | -0.0464

Row | Sequence | shrunken log2 fold change
26 | RRIRERPPRLPRPRPRPDAAPRP | 0.635
27 | RRIRERPPRLPRPRPRPDAGPRP | -0.0396
28 | RRIRERPPRLPRPRPRPDAYPRP | -0.532
29 | RRIRERPPRLPRPRPRPDCMPRP | -0.255
30 | RRIRERPPRLPRPRPRPDCRPRP | 0.0169
31 | RRIRERPPRLPRPRPRPDESPRP | -0.304
32 | RRIRERPPRLPRPRPRPDGLPRP | 0.0424
33 | RRIRERPPRLPRPRPRPDHEPRP | -0.0943
34 | RRIRERPPRLPRPRPRPDHWPRP | 0.0945
35 | RRIRERPPRLPRPRPRPDHYPRP | -0.738
36 | RRIRERPPRLPRPRPRPDIHPRP | -0.512
37 | RRIRERPPRLPRPRPRPDLNPRP | -0.322
38 | RRIRERPPRLPRPRPRPDMRPRP | -3.48e-05
39 | RRIRERPPRLPRPRPRPDMWPRP | -0.0874
40 | RRIRERPPRLPRPRPRPDQQPRP | -0.278
41 | RRIRERPPRLPRPRPRPDQRPRP | -0.48
42 | RRIRERPPRLPRPRPRPDRRPRP | 0.0868
43 | RRIRERPPRLPRPRPRPDSTPRP | -0.0931
44 | RRIRERPPRLPRPRPRPDTKPRP | -0.00108
45 | RRIRERPPRLPRPRPRPDVHPRP | -0.435
46 | RRIRERPPRLPRPRPRPDWKPRP | -0.0141
47 | RRIRERPPRLPRPRPRPDYIPRP | -0.0061
48 | RRIRERPPRLPRPRPRPDYNPRP | -0.53
49 | RRIRERPPRLPRPRPRPEANPRP | -0.00156
50 | RRIRERPPRLPRPRPRPECRPRP | 0.0354

Row | Sequence | shrunken log2 fold change
51 | RRIRERPPRLPRPRPRPECVPRP | 0.162
52 | RRIRERPPRLPRPRPRPEEDPRP | -0.058
53 | RRIRERPPRLPRPRPRPEEPPRP | 0.139
54 | RRIRERPPRLPRPRPRPEGPPRP | 0.23
55 | RRIRERPPRLPRPRPRPEHDPRP | -0.0107
56 | RRIRERPPRLPRPRPRPEHVPRP | -0.017
57 | RRIRERPPRLPRPRPRPEIMPRP | -0.00047
58 | RRIRERPPRLPRPRPRPEKMPRP | -0.421
59 | RRIRERPPRLPRPRPRPEKSPRP | -0.14
60 | RRIRERPPRLPRPRPRPENMPRP | 0.000515
61 | RRIRERPPRLPRPRPRPEPGPRP | 0.667
62 | RRIRERPPRLPRPRPRPEPQPRP | 0.519
63 | RRIRERPPRLPRPRPRPEQNPRP | 0.139
64 | RRIRERPPRLPRPRPRPEQTPRP | 0.111
65 | RRIRERPPRLPRPRPRPERNPRP | -0.0672
66 | RRIRERPPRLPRPRPRPERWPRP | -0.00254
67 | RRIRERPPRLPRPRPRPESTPRP | 0.176
68 | RRIRERPPRLPRPRPRPETVPRP | 0.0162
69 | RRIRERPPRLPRPRPRPEWGPRP | 0.23
70 | RRIRERPPRLPRPRPRPEWRPRP | 0.334
71 | RRIRERPPRLPRPRPRPEYGPRP | -0.315
72 | RRIRERPPRLPRPRPRPFADPRP | -0.192
73 | RRIRERPPRLPRPRPRPFAHPRP | 0.117
74 | RRIRERPPRLPRPRPRPFDKPRP | -1.7
75 | RRIRERPPRLPRPRPRPFFEPRP | -0.0766
